One may read the EC50 (read off the curve) as the concentration at which the effect is half-maximal.

Experiment [1] concerns the target T1, Human EGFR (human, UniProt P00533).
T1 construct: recombinant protein; also called human EGFR recombinant protein
Nature of the experiment: ELISA, coated human EGFR, anti-human Fc-HRP. (In general: In an ELISA, binding on a coated surface is turned into a signal by an enzyme label.)
Protocol: (§1) Binding specificity was tested by ELISA according to the standard protocol. Specifically, 96-well plates were coated with 100 ng/well human EGFR, human HER2, human HER3, human HER4, human cMET, human Sema3A recombinant protein in PBS, incubated overnight at 4° C. Plates were washed twice by TBS+0.05% Tween20. 200 μL blocking buffer (2% BSA in PBS) was added to each well and incubated at 37° C. for 2 h. After wash, Serial diluted antibodies were added to the ELISA plate with 100 μL per well and incubated for 1 h at room temperature. Then plates were washed for 3 times. HRP conjugated anti-human Fc antibody solution (Abcam, ab98624) was added to the plate with 100 μL per well. The plates were incubated at room temperature for 1 h and then washed for 3 times. […] Finally, read the absorbance at A₄₅₀ and A₆₃₀.

The target of experiment [2] is T2, Human cMET (human).
T2 construct: recombinant protein; also called human cMET recombinant protein
Nature of the experiment: ELISA, coated human cMET, anti-human Fc-HRP.
Protocol: as §1

The target in experiment [3] is T3, EGFR on EGFR and cMET co-expressed tumor cell lines (UniProt P00533 25-1210, limits assumed).
T3 construct: whole, on cells
The experiment is described as follows: flow cytometry, A549 cells (co-express EGFR and cMET; both arms contribute).
Protocol: (§2) EBC-1 was cultured with DMEM medium (Gibco, Cat #C11995500BT) containing 10% FBS. […] Each antibody was incubated with different cell lines (1×10⁵ cells/well) for 30 min in 0.2 mL FACS buffer (1×PBS with 0.1% BSA) at 4° C. After wash, cells were incubated with 100 μL PE-conjugated anti human Fc (Abcam, Ab98596, 1:500 dilution) for 30 min at 4° C. After wash with PBS, cells were resuspended in FACS buffer and analyzed by flow cytometer (Beckman, CytoFLEX).

The target in experiment [4] is T4, cMET on EGFR and cMET co-expressed tumor cell lines (UniProt P08581 25-1390, limits assumed).
T4 construct: whole, on cells
Described as above.
Protocol: as §2

The target of experiment [5] is T3, EGFR on EGFR and cMET co-expressed …. Nature of the experiment: flow cytometry, MKN-45 cells (co-express EGFR and cMET; both arms contribute). (In general: Flow cytometry measures light scatter and fluorescence of single cells or particles in a stream.)
Protocol: as §2
The target in experiment [6] is T4, cMET on EGFR and cMET co-expressed …. The description is as above.
Target sequence in this assay (P08581 25-1390 limits assumed): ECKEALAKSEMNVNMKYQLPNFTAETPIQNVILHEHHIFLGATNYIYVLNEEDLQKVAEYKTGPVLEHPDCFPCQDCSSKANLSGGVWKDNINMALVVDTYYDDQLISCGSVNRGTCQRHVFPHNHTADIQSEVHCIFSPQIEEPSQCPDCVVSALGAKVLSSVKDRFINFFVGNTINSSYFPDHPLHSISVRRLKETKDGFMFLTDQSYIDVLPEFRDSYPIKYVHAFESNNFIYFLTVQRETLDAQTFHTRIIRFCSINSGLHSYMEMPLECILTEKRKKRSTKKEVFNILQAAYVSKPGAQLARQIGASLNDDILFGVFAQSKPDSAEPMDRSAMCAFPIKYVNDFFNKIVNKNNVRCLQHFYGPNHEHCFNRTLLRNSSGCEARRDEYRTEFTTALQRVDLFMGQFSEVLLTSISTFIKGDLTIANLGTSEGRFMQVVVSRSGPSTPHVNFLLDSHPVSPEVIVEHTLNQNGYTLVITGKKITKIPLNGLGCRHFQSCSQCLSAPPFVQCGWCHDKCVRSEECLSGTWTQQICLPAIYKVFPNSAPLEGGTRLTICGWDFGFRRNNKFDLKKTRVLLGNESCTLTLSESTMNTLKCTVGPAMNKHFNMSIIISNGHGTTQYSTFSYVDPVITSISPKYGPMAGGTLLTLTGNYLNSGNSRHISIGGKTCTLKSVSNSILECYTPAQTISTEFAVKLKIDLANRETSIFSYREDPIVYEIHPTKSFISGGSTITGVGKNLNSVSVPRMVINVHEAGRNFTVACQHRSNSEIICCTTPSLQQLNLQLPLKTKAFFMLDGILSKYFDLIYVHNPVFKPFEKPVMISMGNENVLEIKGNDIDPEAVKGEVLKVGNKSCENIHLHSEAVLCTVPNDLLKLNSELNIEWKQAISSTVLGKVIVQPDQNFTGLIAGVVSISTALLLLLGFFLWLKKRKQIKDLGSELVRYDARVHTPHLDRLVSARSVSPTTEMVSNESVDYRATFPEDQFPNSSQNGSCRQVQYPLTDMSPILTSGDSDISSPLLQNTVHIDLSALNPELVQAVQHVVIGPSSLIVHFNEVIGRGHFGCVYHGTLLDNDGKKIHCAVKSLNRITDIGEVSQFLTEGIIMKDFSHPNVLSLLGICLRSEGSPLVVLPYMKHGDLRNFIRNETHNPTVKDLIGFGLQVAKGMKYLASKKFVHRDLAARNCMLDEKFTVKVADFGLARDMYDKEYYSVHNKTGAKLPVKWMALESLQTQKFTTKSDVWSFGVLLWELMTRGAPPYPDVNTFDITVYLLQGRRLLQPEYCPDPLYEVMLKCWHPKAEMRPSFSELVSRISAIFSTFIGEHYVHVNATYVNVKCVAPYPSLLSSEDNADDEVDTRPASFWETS
Protocol: as §2
For experiment [7], the target named is T3, EGFR on EGFR and cMET co-expressed …. The description is as above. The source holds these as a separate data set.
Protocol: EBC-1 was cultured with DMEM medium (Gibco, Cat #C11995500BT) containing 10% FBS. […] Each antibody was incubated with different cell lines (1×10⁵ cells/well) for 30 mins in 0.2 mL FACS buffer (1×PBS with 0.1% BSA) at 4° C. After wash, cells were incubated with 100 μL PE-conjugated anti human Fc (Abcam, Ab98596, 1:500 dilution) for 30 mins at 4° C. After wash with PBS, cells were resuspended in FACS buffer and analyzed by flow cytometer (Beckman, CytoFLEX).
The target is the same in experiment [8]. Nature of the experiment: flow cytometry, SNU-5 cells (co-express EGFR and cMET; both arms contribute).
Experiment [9] concerns the target T4, cMET on EGFR and cMET co-expressed …. The experiment is described as above.
Target sequence in this assay (P08581 25-1390 limits assumed): as above
Experiment [10] addresses T5, Human EGFR (human, UniProt P00533).
T5 construct: recombinant protein coated on the ELISA plate; also called human EGFR recombinant protein
Nature of the experiment: ELISA, plate coated with 100 ng/well human EGFR recombinant protein, HRP anti-human Fc, OD450.
Protocol: as §1

Experiment [11] concerns the target T6, Human cMET.
T6 construct: also called human cMET recombinant protein
T6 chain: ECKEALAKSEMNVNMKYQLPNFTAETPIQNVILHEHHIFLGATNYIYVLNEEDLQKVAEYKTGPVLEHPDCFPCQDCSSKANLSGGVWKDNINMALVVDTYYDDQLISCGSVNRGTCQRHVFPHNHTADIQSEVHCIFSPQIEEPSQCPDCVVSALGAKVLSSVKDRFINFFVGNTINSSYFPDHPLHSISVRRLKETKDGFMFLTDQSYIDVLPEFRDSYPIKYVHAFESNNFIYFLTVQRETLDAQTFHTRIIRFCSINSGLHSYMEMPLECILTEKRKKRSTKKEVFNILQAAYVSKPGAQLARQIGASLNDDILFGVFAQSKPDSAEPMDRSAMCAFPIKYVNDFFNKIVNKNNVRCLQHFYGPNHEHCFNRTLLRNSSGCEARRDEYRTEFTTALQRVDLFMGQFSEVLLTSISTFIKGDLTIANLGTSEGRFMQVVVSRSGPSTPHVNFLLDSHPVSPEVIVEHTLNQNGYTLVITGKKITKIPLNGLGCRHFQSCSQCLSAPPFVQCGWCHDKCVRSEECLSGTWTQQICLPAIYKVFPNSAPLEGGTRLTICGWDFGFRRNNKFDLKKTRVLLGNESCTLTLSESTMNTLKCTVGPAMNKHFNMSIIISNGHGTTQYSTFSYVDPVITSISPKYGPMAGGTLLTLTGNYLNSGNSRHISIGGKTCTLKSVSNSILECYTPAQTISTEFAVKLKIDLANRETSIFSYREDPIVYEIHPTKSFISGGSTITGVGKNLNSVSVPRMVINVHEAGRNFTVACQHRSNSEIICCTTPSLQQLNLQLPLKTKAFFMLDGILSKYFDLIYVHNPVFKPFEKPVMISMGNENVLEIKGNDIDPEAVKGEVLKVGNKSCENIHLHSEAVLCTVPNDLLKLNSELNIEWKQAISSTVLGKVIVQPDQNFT
The experiment is described as follows: ELISA, plate coated with 100 ng/well human cMET recombinant protein, HRP anti-human Fc, OD450.
Protocol: as §1

The target in experiment [12] is T3, EGFR on EGFR and cMET co-expressed …. Nature of the experiment: flow cytometry, SW620 cells (named among the EGFR and cMET co-expressing lines; both arms contribute).
Experiment [13] has as its target T4, cMET on EGFR and cMET co-expressed …. The description is as above.
Experiment [14] deals with T3, EGFR on EGFR and cMET co-expressed …. Nature of the experiment: flow cytometry on EBC-1 cells (co-express EGFR and cMET), PE anti-human Fc; signal of the whole bispecific, not resolved by arm.
Protocol: (§3) EBC-1, ACHN and CAL-27 were cultured with DMEM medium (Gibco, Cat #C11995500BT) containing 10% FBS. […] Each antibody was incubated with different cell lines (1×10⁵ cells per well) for 30 mins in 0.2 mL FACS buffer (1×PBS with 0.1% BSA) at 4° C. After wash, cells were incubated with 100 μL PE-conjugated anti human Fc (Abcam, Ab98596, 1:500 dilution) for 30 mins at 4° C. After wash with PBS, cells were resuspended in FACS buffer and analyzed by flow cytometer (Beckman, CytoFLEX).
The target in experiment [15] is T4, cMET on EGFR and cMET co-expressed …. The experiment is described as above.
Protocol: as §3
For experiment [16], the target named is T3, EGFR on EGFR and cMET co-expressed …. The experiment is described as follows: flow cytometry on SNU-5 cells (co-express EGFR and cMET), PE anti-human Fc; signal of the whole bispecific, not resolved by arm.
Protocol: as §3
Experiment [17] deals with T4, cMET on EGFR and cMET co-expressed …. The experiment is described as above.
Target sequence in this assay (P08581 25-1390 limits assumed): as the sequence (P08581 25-1390 limits assumed) above
Protocol: as §3

T2 sequence (P08581 whole entry): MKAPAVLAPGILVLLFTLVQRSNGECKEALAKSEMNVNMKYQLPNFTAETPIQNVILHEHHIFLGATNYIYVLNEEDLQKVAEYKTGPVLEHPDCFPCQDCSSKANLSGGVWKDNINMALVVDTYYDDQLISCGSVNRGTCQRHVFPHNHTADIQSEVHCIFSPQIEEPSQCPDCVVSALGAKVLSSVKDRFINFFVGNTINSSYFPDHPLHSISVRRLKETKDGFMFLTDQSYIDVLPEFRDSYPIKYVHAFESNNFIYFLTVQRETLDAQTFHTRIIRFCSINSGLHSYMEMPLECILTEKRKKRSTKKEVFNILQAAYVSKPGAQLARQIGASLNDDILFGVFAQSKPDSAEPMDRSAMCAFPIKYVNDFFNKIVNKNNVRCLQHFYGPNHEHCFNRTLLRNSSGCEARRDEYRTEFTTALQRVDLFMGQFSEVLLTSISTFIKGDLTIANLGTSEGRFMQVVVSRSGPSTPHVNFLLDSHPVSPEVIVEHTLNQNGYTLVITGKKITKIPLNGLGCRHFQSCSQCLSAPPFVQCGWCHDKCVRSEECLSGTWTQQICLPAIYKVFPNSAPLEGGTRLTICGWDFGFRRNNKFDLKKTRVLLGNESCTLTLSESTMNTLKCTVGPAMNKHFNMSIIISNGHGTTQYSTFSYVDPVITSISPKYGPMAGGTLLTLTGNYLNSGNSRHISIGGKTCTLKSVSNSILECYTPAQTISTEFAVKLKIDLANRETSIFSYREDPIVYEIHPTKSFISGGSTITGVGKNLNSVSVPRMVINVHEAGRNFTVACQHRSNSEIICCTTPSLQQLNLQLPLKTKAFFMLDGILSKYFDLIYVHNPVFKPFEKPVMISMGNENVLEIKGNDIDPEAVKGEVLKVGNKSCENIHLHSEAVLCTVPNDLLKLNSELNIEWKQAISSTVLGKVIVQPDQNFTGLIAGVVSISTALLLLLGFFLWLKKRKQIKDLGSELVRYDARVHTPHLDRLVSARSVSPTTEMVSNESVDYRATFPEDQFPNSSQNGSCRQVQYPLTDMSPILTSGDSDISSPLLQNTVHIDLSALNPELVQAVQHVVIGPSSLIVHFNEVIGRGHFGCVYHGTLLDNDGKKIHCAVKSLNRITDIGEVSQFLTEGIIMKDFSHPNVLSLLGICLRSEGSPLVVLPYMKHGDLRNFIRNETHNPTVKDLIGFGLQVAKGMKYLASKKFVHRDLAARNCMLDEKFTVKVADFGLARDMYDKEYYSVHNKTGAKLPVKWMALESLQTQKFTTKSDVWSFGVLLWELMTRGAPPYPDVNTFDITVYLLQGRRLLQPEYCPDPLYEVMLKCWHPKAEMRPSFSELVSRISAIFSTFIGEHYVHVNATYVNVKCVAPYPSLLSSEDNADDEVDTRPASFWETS

B1: Amivantamab (bispecific antibody, human IgG1, kappa)
heavy 1: not shown
light 1: not shown
heavy 2: not shown
light 2: DIQMTQSPSSVSASVGDRVTITCRASQGISNWLAWFQHKPGKAPKLLIYAASSLLSGVPSRFSGSGSGTDFTLTISSLQPEDFATYYCQQANSFPITFGQGTRLEIKRTVAAPSVFIFPPSDEQLKSGTASVVCLLNNFYPREAKVQWKVDNALQSGNSQESVTEQDSKDSTYSLSSTLTLSKADYEKHKVYACEVTHQGLSSPVTKSFNRGEC
notes: Bispecific positive control
For B1, the “EC50 (read off the curve)” value with Human EGFR [1] was around 0.6 nM; in the experiment with Human cMET [2], around 1 nM; in experiment [3], around 1 nM; in experiment [4], around 1 nM; in experiment [5] it was around 0.5 nM; in experiment [6], around 0.5 nM. Further, the “EC50 (read off the curve)” value in experiment [7] is around 2 nM; in [8], around 2 nM; in [9], around 2 nM; with Human EGFR [10], around 0.4 nM; with Human cMET [11] it was around 0.1 nM; in [12] it was around 0.2 nM. Moreover, the “EC50 (read off the curve)” value was around 0.2 nM in experiment [13]; around 2 nM in experiment [14]; around 2 nM in experiment [15]; around 3 nM in [16]; around 3 nM in experiment [17].

Values taken from patent US20250381289A1 (Genmab, published 2025).
